# B1: murine SMOX (Mus musculus) (protein)
# chain: MQSCESSGDSADDPLSRGLRRRGQPRVVVIGAGLAGLAAARALLEQGFTDVTVLEASSHIGGRVQSVRLGDTTFELGATWIHGSHGNPIYQLAEANGLLEETTDGERSVGRISLYSKNGVACYLTNRGCRIPKDVVEEFSDLYNEVYNMTQEFFRHGKPVNAESQNSVGVFTREKVRNRIRDDPDDTEATKRLKLAMIQQYLKVESCESSSHSIDEVSLSAFGEWTEIPGAHHIIPSGFMRVVELLAEGIPPHVIQLGKPVRCIHWDQASAHPRGPEIEPRGEGDHNHDTGEGGQSGENPQQGRWDEDEPWPVVVECEDCEVIPADHVIVTVSLGVLKRQYTSFFRPCLPTEKVAAIHRLGIGTTDKIFLEFEEPFWGPECNSLQFVWEDEAESCTLTYPPELWYRKICGFDVLYPPERYGHVLSGWICGEEALVMERCDDEAVAEICTEMLRQFTGNPNIPKPRRILRSAWGSNPYFRGSYSYTQVGSSGADVEKLAKPLPYTESSKTAPMQVLFSGEATHRKYYSTTHGALLSGQREAARLIEMYRDLFQQGP
# Substrate: NCCCNCCCCNCCCN
# Assay: purified protein, by the assay type
# Conditions: other: compound as substrate, Hepes 50 mM, pH 7.5, 37 °C
protein,measurement,value
B1,Km,495 µM

# Reference: article PMC6407594
